{"source": "paper PMC3870462", "about": "(Chemistry & biology, 2013)", "molecules": {"B1": {"name": "CurL dd-KS-AT (domain or fragment, Moorea producens)", "chain": "MNLKQEQEKEQSLSALQRALIALKDARSKLEKYETQSKEPIAIIGMSCRFPGGVDSPESFWQLLNDGVDAISEVPSNRWNINNYYDPDPDATGKISTRDGGFLSQIDGFDAPFFCISPREVQSLDPQQRLLLEVSWEAIERANIVPDQLFNSLTGVFIGIGSSDYLNQLATSEVPQAYWGTGNAPSAATGRLSYILGLTGPNLAVETACSSSLVSLHLACQSLRQQECNLALAGGVNLLLSPETSIIFSQAKMLSPDGRCKTFDASANGYVRGEGCGVIVLKRLSDAVANGDNVLAVIRGTAINQDGASGGLTVPNGPSQVAVIRKALSNGGVDPASVSYIEAHGTGTSLGDPIEVGAIGTVFGKTHSQEQPLIVGTAKTNIGHLEVAAGIAGLMKVVLQLQHQQIAPSLHFKQPNPYINWSQLPVQVSTQLTPWQTNGKSRIAGVSSFGFSGTNAHVVIEEAPKEGNSLSATVEENGNSTVKEDTLERAVYLLTLSAKTQAALDDLVNSYQNYLKNYPELRIADICYTANTCRSHFNNRLAVVASNQQELVEKLRQHQQGEEVTGIYSIELPNNSTAPKIALLFTGQGSQYVNMGRQLYQQAPVFRKALEQCNEILLGTETFREKSLLEILYPANQEQSNSSLLDQTAYTQPCLFALEYALFKLWQSWGIQPDVVMGHSVGEYVAATVAGVFSLEEGLKLIAARGRLMQQLPAGGEMVSVIASESKVLEIFKAMSLEEKVAIAAINGPESTVISGEAEAVGAIATHLESLSIKTKQLQVSHAFHSRLMEPMLAEFEAVAKQVTYSQPQISLISNVTGQQVGSEITSAEYWVNHVRQPVRFSESMTTLHQEGYELFLEIGPKPILLGMGRQCLPEGVGVWLPSLRPGVEAWQQMLQSLGQLYMKGIKVNWSGFDQDYACHKVAIPTYPFQRESYWIDT"}, "B2": {"name": "CurG-CurH ^ACPddG-G3SG3S-ddH^KS (other, Moorea producens)", "chain": "LEAKLLDEIKQSSNQELESSIDQILESIINGGGSGGGSMLNKFTKKEQILSEKQQIKQLSPLQRAALALKKLETKLNNTLHE"}}, "key": {"[1]": {"biological_target": "CurI dd-KS-AT dimer (Moorea producens)", "assay": "SEC"}, "[2]": {"biological_target": "CurH ACP-dd (Moorea producens)", "assay": "fluorescence polarisation"}, "[3]": {"biological_target": "CurK ACP-dd E2224R (Moorea producens)", "assay": "fluorescence polarisation"}, "[4]": {"biological_target": "Avitag-CurG ACP-dd (Moorea producens)", "assay": "BLI"}, "[5]": {"biological_target": "CurG ACP-dd (Moorea producens)", "assay": "fluorescence polarisation"}, "[6]": {"biological_target": "CurK ACP-dd (Moorea producens)", "assay": "fluorescence polarisation"}, "[7]": {"biological_target": "CurK ACP-dd E2224R (Moorea producens)", "assay": "fluorescence polarisation", "remark": "listed apart in the source"}, "[8]": {"biological_target": "CurK-CurL ^ACPddK-G3SG3S-ddL^KS (Moorea producens)"}, "[9]": {"biological_target": "PikAIIID-^ACPddG (not stated | Moorea producens)"}, "[10]": {"biological_target": "CurL dd^KS (Moorea producens)", "assay": "crystal structure"}, "[11]": {"biological_target": "CurL ACP-dd (Moorea producens)", "assay": "fluorescence polarisation"}, "crystal structure": {"biological_target": "the molecule itself", "assay": "crystal structure"}, "[12]": {"biological_target": "the molecule itself"}}, "note": "Read-outs that look alike come from different tables or passages of the source."}
{"molecule": "CurI dd-KS-AT dimer (domain or fragment)", "values": [{"measurement": "stoichiometry N", "setting": "[1]", "result": 2}, {"measurement": "Kd", "setting": "[2]", "result": 9.4, "unit": "µM"}]}
{"molecule": "CurH dd-KS-AT (domain or fragment)", "values": [{"measurement": "Kd", "setting": "[3]", "result": 10, "unit": "µM"}, {"measurement": "Kd", "setting": "[4]", "result": 16.5, "unit": "µM"}, {"measurement": "Kd", "setting": "[5]", "result": 15.7, "unit": "µM"}, {"measurement": "Kd", "setting": "[6]", "result": 23.7, "unit": "µM"}, {"measurement": "Kd", "setting": "[7]", "result": 9.2, "unit": "µM"}]}
{"molecule": "CurI dd-KS-AT (domain or fragment)", "values": [{"measurement": "Kd", "setting": "[2]", "result": 20.5, "unit": "µM"}]}
{"molecule": "CurK-CurL ^ACPddK-G3SG3S-ddL^KS", "values": [{"measurement": "stoichiometry N", "setting": "[8]", "result": 2}]}
{"molecule": "ddH^KS-PikAIV (enzyme)", "values": [{"measurement": "10-deoxymethynolide (10-dml) produced, percent of wild type PikAIII/PikAIV", "setting": "[9]", "result": 188, "unit": "%"}, {"measurement": "narbonolide (nbl) produced, percent of wild type PikAIII/PikAIV", "setting": "[9]", "result": 70, "unit": "%"}, {"measurement": "pentaketide substrate consumed in the PikAIII/PikAIV two-module reaction", "setting": "[9]", "result": 86, "unit": "%"}]}
{"molecule": "CurH dd-KS-AT lacking helix αA and the dd^KS loop (domain or fragment)", "values": [{"measurement": "Kd", "setting": "[5]", "result": 117, "unit": "µM"}]}
{"molecule": "CurL dd^KS (domain or fragment)", "values": [{"measurement": "stoichiometry N", "setting": "[10]", "result": 2}]}
{"molecule": "CurM dd-KS-AT (domain or fragment)", "values": [{"measurement": "Kd", "setting": "[6]", "result": 52, "unit": "µM"}, {"measurement": "Kd", "setting": "[11]", "result": 5.4, "unit": "µM"}]}
{"molecule": "B1", "values": [{"measurement": "stoichiometry N", "setting": "crystal structure", "result": 2}, {"measurement": "Kd", "setting": "[6]", "result": 4.5, "unit": "µM"}]}
{"molecule": "B2", "values": [{"measurement": "stoichiometry N", "setting": "[12]", "result": 2}]}
